Consider 91 sequences from the supplement of paper PMC9112550, “Optimization of the antimicrobial peptide Bac7 by deep mutational scanning” (BMC Biology, 2022).
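Further: peptides expressed intracellularly from a pBAD plasmid library in pooled LB shake-flask culture, induced with 0.3% L-arabinose, DNA abundance read by NGS, three biological replicates, DESeq2 with apeglm shrinkage.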

The subject of the series is Escherichia coli TOP10. As to the kind of experiment: shrunken log2 fold change of peptide-encoding DNA abundance (4.5 h post-induction vs induction); higher = less antimicrobial activity (less host growth inhibition). As to conditions: time post-induction: 4.5 h; library: site-saturation at positions 5, 18, 19, 20.
In the case of RRIRARPPRLPRPRPRPRLYPRP, the “shrunken log2 fold change” value is 0.501.
As for RRIRMRPPRLPRPRPRPSWNPRP, the figure is -0.15; as for RRIRNRPPRLPRPRPRPAYNPRP, -0.259; as for RRIRIRPPRLPRPRPRPAWWPRP, 0.0406.
The figure for RRIRCRPPRLPRPRPRPQELPRP is -0.212; for RRIRCRPPRLPRPRPRPYNMPRP it is -0.188; for RRIRGRPPRLPRPRPRPPDKPRP it is 1.17.
As for RRIRQRPPRLPRPRPRPKEQPRP, the figure is -0.0394.
For RRIRWRPPRLPRPRPRPMHSPRP, the “shrunken log2 fold change” value was -0.0572.
For RRIRIRPPRLPRPRPRPKYSPRP, the “shrunken log2 fold change” value is -0.216.
Turning to RRIRHRPPRLPRPRPRPMHLPRP, the “shrunken log2 fold change” value turned out to be 0.0317.
The figure for RRIRGRPPRLPRPRPRPDLSPRP is 0.121; for RRIRTRPPRLPRPRPRPRHPPRP it is 0.225; for RRIRCRPPRLPRPRPRPGTWPRP it is 0.011.
As for RRIRTRPPRLPRPRPRPAGAPRP, the figure is 0.164; as for RRIRRRPPRLPRPRPRPYIPPRP, -0.468; as for RRIRQRPPRLPRPRPRPRVGPRP, 0.71.
For the sequence RRIRCRPPRLPRPRPRPDSKPRP, the “shrunken log2 fold change” value was -0.657.
Regarding RRIRERPPRLPRPRPRPSIEPRP, the “shrunken log2 fold change” value is -0.37.
As for RRIRPRPPRLPRPRPRPPQLPRP, the figure is 0.378.
The figure for RRIRTRPPRLPRPRPRPGCCPRP is 0.334.
As for RRIRFRPPRLPRPRPRPWHNPRP, the “shrunken log2 fold change” value turned out to be 0.0654.
RRIRPRPPRLPRPRPRPHSCPRP: the “shrunken log2 fold change” value was -0.11.
The figure for RRIRARPPRLPRPRPRPIMQPRP is -0.0531; for RRIRGRPPRLPRPRPRPTMRPRP it is 1.44.
As for RRIRHRPPRLPRPRPRPTCNPRP, the figure is -0.411.
For RRIRPRPPRLPRPRPRPWFVPRP, the “shrunken log2 fold change” value was -0.25.
For RRIRDRPPRLPRPRPRPHQNPRP, the “shrunken log2 fold change” value was -0.303.
As to RRIRIRPPRLPRPRPRPFFDPRP, the “shrunken log2 fold change” value was -0.417.
In the case of RRIRTRPPRLPRPRPRPSAWPRP, the “shrunken log2 fold change” value was 0.0388.
The figure for RRIRFRPPRLPRPRPRPLARPRP is -0.0473.
The figure for RRIRARPPRLPRPRPRPFKSPRP is -0.549; for RRIRQRPPRLPRPRPRPNARPRP it is -0.0902; for RRIRPRPPRLPRPRPRPYLMPRP it is -0.58.
RRIRYRPPRLPRPRPRPRREPRP: the “shrunken log2 fold change” value worked out at 0.0181.
The figure for RRIRKRPPRLPRPRPRPWMCPRP is -0.316.
As for RRIRNRPPRLPRPRPRPPIFPRP, the figure is 0.0391; as for RRIRCRPPRLPRPRPRPIFEPRP, 0.0936; as for RRIRIRPPRLPRPRPRPAIKPRP, -0.265.
As for RRIRTRPPRLPRPRPRPLDHPRP, the figure is -0.186; as for RRIRNRPPRLPRPRPRPNLYPRP, -0.515; as for RRIRGRPPRLPRPRPRPEHSPRP, 0.114.
For RRIRDRPPRLPRPRPRPNYVPRP, the “shrunken log2 fold change” value is -0.147.
Regarding RRIRGRPPRLPRPRPRPNVKPRP, the “shrunken log2 fold change” value was determined as 0.292.
As for RRIRKRPPRLPRPRPRPCQEPRP, the figure is -0.0342.
As for RRIRFRPPRLPRPRPRPTSWPRP, the figure is 0.3; as for RRIRERPPRLPRPRPRPKFYPRP, -0.519.
Take RRIRHRPPRLPRPRPRPMHIPRP: the “shrunken log2 fold change” value was -1.93.
Consider RRIRARPPRLPRPRPRPQPSPRP, for which the “shrunken log2 fold change” value was determined as 0.555.
Consider RRIRGRPPRLPRPRPRPKMFPRP, for which the “shrunken log2 fold change” value was 0.065.
The figure for RRIRIRPPRLPRPRPRPNFWPRP is -0.0359.
The figure for RRIRPRPPRLPRPRPRPPDDPRP is 0.142; for RRIRHRPPRLPRPRPRPKQWPRP it is 0.0913; for RRIRERPPRLPRPRPRPSCFPRP it is -0.322.
The figure for RRIRFRPPRLPRPRPRPFWHPRP is 0.041; for RRIRIRPPRLPRPRPRPDKSPRP it is -0.0563.
As for RRIRERPPRLPRPRPRPASWPRP, the “shrunken log2 fold change” value was 0.0747.
The figure for RRIRDRPPRLPRPRPRPIWGPRP is -0.0681; for RRIRLRPPRLPRPRPRPDVIPRP it is -0.161.
As for RRIRNRPPRLPRPRPRPSHSPRP, the figure is -0.182; as for RRIRYRPPRLPRPRPRPCMWPRP, 0.0465.
The figure for RRIRRRPPRLPRPRPRPADCPRP is 0.0869.
For the sequence RRIRIRPPRLPRPRPRPCCNPRP, the “shrunken log2 fold change” value was -0.0118.
Turning to RRIRSRPPRLPRPRPRPVRHPRP, the “shrunken log2 fold change” value was -0.0103.
The figure for RRIRWRPPRLPRPRPRPVNIPRP is 0.0116; for RRIRPRPPRLPRPRPRPQKEPRP it is 0.0431; for RRIRIRPPRLPRPRPRPKQEPRP it is 0.113.
For RRIRCRPPRLPRPRPRPYHWPRP, the “shrunken log2 fold change” value was -1.09.
The figure for RRIRYRPPRLPRPRPRPIPHPRP is 0.046; for RRIRCRPPRLPRPRPRPETQPRP it is 0.0409.
For the sequence RRIRKRPPRLPRPRPRPPKTPRP, the “shrunken log2 fold change” value is 0.0147.
With RRIRDRPPRLPRPRPRPCQAPRP, the “shrunken log2 fold change” value is -0.0133.
Regarding RRIRQRPPRLPRPRPRPINAPRP, the “shrunken log2 fold change” value is -0.116.
On to RRIRKRPPRLPRPRPRPAHFPRP, for which the “shrunken log2 fold change” value is 0.232.
As for RRIRFRPPRLPRPRPRPTWQPRP, the figure is 0.145; as for RRIRARPPRLPRPRPRPQALPRP, 0.274.
As for RRIRTRPPRLPRPRPRPFLNPRP, the figure is -0.183; as for RRIRGRPPRLPRPRPRPGCYPRP, 0.345; as for RRIRMRPPRLPRPRPRPPRYPRP, 1.71.
As for RRIRTRPPRLPRPRPRPQYRPRP, the figure is -0.0697; as for RRIRDRPPRLPRPRPRPNFFPRP, 0.144; as for RRIRCRPPRLPRPRPRPNENPRP, -0.0814.
In the case of RRIRIRPPRLPRPRPRPCHWPRP, the “shrunken log2 fold change” value is -0.0328.
The figure for RRIRPRPPRLPRPRPRPAAEPRP is 0.595; for RRIRSRPPRLPRPRPRPTHDPRP it is 0.221.
The figure for RRIRARPPRLPRPRPRPGIAPRP is 0.331.
The figure for RRIRHRPPRLPRPRPRPSCMPRP is -0.224; for RRIRLRPPRLPRPRPRPVQIPRP it is 0.364; for RRIRNRPPRLPRPRPRPCWCPRP it is -0.147.
RRIRPRPPRLPRPRPRPRVGPRP: the “shrunken log2 fold change” value was found to be 0.543.
As for RRIRGRPPRLPRPRPRPWQHPRP, the figure is -0.0318.
